In patent publication US12551542B2, “Polymeric nanoparticles that target liver sinusoidal endothelial cells to induce antigen-specific immune tolerance” (The Regents of the University of California, priority 2019, dated 2026):
Blank lines part the entries; values can stand above or below the molecule they belong to. No end group written: not given here.

Columns and labels:
LSECs = experiment: NP-associated FITC-OVA uptake, flow cytometry; assay type: cell-based, mouse
Protocol: Following OVA-FITC labeling, the antigen was encapsulated in NPs as described in Example 1 Materials and Methods. LSECs and KUP5 cells were incubated with FITC-OVA or NP^FITC-OVA for the indicated time periods. After being washed in PBS, the % FITC-OVA^+ cells and the cellular mean fluorescence intensity (MFI) were analyzed in a BD LSRII (IMED) analytic flow cytometer by Flowjo® software. Panels (A, B): Kinetics of NP-mediated antigen uptake in LSECs and KUP5 cells, respectively. Panels (C, D): Histograms depicting the % and MFI of antigen-positive LSECs. Data are expressed as the mean±SEM (n=6); *p<0.05; **p<0.01; ***[…] (one-way ANOVA followed by Tukey's test).
To quantitatively evaluate antigen uptake into cells, OVA was labeled with FITC as previously described. Following the incorporation of FITC-OVA into NPs, LSECs and KUP5 cells were incubated with FITC-OVA or the labeled particles for 24 h. Cells were collected, washed with PBS, and analyzed in a BD LSRII (IMED) analytic flow cytometer. Flowjo software (Ashland, OR) was used to quantify the percentage and mean fluorescence intensity of the FITC-OVA+-labeled cells.

[1] = target: stabilin-1 scavenger receptor on liver sinusoidal endothelial cells (LSECs) (mouse, UniProt Q8R4Y4 26-2571); experiment: cell-based or functional assay
Sequence of stabilin-1 scavenger receptor on liver sinusoidal endothelial cells (LSECs) (Q8R4Y4 26-2571): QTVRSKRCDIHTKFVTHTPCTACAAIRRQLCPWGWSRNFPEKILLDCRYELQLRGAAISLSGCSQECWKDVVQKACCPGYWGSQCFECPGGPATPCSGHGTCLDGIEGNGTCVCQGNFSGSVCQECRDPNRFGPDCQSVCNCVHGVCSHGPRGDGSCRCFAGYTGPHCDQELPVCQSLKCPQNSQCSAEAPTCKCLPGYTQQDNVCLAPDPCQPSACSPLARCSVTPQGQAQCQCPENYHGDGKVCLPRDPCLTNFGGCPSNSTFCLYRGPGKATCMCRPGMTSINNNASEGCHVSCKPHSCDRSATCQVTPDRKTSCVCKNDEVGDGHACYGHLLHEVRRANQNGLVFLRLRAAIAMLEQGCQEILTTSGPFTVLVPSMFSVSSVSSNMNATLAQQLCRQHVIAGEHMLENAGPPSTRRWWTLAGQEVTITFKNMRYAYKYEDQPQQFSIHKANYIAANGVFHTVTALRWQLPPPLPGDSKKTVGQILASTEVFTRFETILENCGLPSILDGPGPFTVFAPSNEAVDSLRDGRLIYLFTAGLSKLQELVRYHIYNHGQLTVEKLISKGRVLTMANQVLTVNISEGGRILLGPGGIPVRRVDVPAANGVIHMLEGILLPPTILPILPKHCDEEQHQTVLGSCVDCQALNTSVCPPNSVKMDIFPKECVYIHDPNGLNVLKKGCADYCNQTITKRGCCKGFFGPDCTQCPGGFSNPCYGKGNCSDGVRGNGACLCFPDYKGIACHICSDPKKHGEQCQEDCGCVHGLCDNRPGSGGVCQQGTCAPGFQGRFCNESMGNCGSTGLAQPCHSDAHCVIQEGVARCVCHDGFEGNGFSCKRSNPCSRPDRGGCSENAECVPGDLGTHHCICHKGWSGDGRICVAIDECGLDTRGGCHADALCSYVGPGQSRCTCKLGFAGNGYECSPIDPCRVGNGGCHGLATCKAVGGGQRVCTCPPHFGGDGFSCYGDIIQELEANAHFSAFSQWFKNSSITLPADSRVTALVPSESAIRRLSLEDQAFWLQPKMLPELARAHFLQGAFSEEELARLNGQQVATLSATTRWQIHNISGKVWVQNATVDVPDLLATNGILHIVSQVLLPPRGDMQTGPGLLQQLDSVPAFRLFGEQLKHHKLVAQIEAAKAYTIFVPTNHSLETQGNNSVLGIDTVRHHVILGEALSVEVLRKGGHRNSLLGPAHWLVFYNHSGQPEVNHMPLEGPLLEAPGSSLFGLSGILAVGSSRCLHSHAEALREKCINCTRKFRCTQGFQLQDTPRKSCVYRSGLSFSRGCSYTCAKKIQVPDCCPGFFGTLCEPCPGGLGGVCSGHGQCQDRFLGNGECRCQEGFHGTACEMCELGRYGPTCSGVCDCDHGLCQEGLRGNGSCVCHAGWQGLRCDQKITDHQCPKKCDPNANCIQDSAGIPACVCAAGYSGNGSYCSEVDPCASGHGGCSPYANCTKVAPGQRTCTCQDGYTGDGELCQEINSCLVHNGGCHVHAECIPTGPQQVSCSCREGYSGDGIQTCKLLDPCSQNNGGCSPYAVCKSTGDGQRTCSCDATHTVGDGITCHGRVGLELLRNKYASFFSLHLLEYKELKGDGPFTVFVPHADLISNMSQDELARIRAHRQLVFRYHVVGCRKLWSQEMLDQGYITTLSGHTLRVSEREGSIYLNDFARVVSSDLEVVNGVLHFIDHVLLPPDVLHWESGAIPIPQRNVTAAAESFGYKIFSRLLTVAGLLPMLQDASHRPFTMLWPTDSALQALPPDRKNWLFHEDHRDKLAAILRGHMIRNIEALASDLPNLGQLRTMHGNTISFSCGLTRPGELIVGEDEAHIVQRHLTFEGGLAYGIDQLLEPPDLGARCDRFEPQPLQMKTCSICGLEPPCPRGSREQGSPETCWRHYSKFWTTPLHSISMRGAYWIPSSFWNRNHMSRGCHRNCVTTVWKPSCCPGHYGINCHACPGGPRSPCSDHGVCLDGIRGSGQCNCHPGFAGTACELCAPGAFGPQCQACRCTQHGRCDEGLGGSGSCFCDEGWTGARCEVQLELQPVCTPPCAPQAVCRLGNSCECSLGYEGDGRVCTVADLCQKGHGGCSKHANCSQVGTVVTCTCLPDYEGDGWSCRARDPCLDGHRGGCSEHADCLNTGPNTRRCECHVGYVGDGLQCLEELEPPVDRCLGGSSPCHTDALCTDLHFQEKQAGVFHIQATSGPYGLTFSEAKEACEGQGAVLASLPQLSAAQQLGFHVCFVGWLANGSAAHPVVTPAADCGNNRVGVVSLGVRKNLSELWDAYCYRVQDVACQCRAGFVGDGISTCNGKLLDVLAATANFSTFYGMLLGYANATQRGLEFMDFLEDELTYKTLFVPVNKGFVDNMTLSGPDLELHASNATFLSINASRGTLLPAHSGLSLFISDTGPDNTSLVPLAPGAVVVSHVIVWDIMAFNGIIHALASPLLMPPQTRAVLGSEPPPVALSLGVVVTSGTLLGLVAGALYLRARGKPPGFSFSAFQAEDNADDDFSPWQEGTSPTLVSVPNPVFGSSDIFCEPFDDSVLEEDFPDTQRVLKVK

[2] = target: stabilin-2 scavenger receptor on liver sinusoidal endothelial cells (LSECs) (mouse, UniProt Q8R4U0 29-2559); experiment: cell-based or functional assay
Sequence of stabilin-2 scavenger receptor on liver sinusoidal endothelial cells (LSECs) (Q8R4U0 29-2559): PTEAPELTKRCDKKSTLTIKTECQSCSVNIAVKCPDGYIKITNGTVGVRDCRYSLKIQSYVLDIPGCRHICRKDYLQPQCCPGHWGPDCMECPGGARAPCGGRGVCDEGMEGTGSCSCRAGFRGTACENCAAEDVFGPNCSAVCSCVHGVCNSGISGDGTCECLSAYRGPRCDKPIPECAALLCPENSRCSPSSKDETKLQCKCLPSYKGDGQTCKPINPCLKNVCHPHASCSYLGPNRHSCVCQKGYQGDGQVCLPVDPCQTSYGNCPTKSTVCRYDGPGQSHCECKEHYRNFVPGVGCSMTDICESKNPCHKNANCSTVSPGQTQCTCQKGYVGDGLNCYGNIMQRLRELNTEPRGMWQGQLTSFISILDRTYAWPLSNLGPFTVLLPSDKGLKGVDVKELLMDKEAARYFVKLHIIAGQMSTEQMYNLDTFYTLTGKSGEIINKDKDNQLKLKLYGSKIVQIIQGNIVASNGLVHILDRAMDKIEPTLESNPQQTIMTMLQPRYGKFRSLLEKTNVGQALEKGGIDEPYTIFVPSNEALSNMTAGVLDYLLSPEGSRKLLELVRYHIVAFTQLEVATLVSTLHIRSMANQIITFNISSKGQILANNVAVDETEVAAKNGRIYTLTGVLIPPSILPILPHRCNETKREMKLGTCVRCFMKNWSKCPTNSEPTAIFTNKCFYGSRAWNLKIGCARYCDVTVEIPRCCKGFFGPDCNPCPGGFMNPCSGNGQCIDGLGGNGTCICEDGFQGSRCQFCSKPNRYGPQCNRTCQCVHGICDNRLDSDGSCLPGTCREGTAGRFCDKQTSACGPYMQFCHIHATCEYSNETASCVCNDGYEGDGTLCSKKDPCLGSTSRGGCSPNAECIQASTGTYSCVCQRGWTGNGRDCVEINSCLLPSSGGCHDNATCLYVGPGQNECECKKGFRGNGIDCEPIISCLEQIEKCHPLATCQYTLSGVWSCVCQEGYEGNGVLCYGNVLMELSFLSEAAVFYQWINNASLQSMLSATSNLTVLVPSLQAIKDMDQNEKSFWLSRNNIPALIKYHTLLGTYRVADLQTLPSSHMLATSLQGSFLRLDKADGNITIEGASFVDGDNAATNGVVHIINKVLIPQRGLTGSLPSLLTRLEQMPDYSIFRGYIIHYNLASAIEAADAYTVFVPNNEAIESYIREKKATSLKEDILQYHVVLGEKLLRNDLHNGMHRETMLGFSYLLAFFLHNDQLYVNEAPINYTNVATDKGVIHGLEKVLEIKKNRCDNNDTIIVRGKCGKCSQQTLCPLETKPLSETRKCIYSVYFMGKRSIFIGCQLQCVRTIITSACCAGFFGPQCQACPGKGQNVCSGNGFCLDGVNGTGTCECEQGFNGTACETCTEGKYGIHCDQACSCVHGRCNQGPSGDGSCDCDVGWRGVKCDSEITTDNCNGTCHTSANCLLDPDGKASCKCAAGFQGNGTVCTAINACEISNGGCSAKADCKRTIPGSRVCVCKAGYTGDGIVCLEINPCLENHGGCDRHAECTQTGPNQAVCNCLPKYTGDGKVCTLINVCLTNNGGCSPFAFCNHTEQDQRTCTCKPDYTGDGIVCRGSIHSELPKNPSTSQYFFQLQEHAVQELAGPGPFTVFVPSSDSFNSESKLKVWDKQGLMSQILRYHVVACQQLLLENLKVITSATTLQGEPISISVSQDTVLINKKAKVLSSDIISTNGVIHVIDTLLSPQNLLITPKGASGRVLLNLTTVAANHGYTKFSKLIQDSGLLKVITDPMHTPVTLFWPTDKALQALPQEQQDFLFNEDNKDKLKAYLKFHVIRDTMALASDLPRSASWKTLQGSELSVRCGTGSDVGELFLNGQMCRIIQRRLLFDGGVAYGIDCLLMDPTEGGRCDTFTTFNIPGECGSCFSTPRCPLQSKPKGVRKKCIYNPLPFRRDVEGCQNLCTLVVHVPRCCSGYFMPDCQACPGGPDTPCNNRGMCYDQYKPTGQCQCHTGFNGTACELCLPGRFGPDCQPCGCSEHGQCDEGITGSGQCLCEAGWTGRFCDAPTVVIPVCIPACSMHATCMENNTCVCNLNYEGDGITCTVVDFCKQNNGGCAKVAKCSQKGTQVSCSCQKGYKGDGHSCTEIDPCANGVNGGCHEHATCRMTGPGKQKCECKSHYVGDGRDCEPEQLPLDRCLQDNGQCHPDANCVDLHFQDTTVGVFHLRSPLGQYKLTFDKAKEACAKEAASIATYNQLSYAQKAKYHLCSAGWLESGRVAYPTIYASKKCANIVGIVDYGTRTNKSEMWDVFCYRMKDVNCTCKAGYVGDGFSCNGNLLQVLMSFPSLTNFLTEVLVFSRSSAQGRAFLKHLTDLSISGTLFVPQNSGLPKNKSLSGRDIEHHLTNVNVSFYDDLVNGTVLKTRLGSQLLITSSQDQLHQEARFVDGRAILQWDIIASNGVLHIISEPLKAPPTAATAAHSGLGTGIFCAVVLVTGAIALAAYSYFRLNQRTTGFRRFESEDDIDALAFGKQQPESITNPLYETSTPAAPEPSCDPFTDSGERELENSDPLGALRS

mice = experiment: Biodistribution of DyLight680-OVA NPs after IV injection, ex vivo IVIS imaging; parameters: species or system mouse; conditions: 25 μg OVA in 500 μg NPs per animal, 24 h
Text: Panel (B): Confocal microscopy to show the intrahepatic distribution of free or encapsulated labeled OVA. […] The red and green fluorescence colors represent DyLight680-labeled OVA and isolectin B4 stained LSECs, respectively. Scale bars correspond to 50 μm. Data are expressed as the mean±SEM (n=6); *p<0.05; **p<0.01; ***[…] (one-way ANOVA followed by Tukey's test).
FIG. 17A schematically illustrates two main strategies for inducing immune tolerance. Strategy 1 depicts a liver-targeting nanoparticle for allergen delivery to LSEC in the liver, where allergen processing and presentation to naïve T-cells induce antigen-specific Foxp3^+ Tregs, which are recruited to the site of allergic inflammation in the lung. […] FIG. 17B schematically illustrates the PLGA nanoparticle synthesis process, including carrier loading with cargo (allergen, epitopes, pharmaceutical agents), by a w/o/w double emulsion method combined with solvent removal. […] The red and green fluorescence colors represent Dylight680-labeled OVA and isolectin B4 stained LSECs, respectively. […]
The near-infrared fluorescent dye, DyLight680 (ex=692, em=712), was used to label OVA, which was subsequently encapsulated in the NPs. […] The data were analyzed using Living Image software (PerkinElmer, version 4.5) and were expressed as the fluorescence intensity in the region of interest. […]

Molecule: FITC-OVA: fluorescein isothiocyanate (FITC)-labeled OVA, not encapsulated
NP-mediated FITC-OVA uptake (OVA fluorescence intensity) (LSECs): No significant uptake

percentage of OVA-positive LSECs (flow cytometry, uptake of nanoparticle-encapsulated FITC-OVA) [1]: ~2 fold | percentage of OVA-positive LSECs (flow cytometry, uptake of nanoparticle-encapsulated FITC-OVA) [2]: ~2 fold
B1: ApoB peptide (ApoBP), RLYRKRGLK, containing a GGC tag, conjugated to the surface of OVA-encapsulating PLGA nanoparticles (peptide)
peptide: RLYRKRGLK
modifications: also: GGC tag at one end, orientation unclear, tag Cys thioether-linked to maleimide (NAEM) on PLGA nanoparticle

B2: non-encapsulated fluorescent OVA: DyLight680-labeled ovalbumin injected free, not encapsulated (protein, UniProt P01012 2-386, looked up)
Ovalbumin: GSIGAASMEFCFDVFKELKVHHANENIFYCPIAIMSALAMVYLGAKDSTRTQINKVVRFDKLPGFGDSIEAQCGTSVNVHSSLRDILNQITKPNDVYSFSLASRLYAEERYPILPEYLQCVKELYRGGLEPINFQTAADQARELINSWVESQTNGIIRNVLQPSSVDSQTAMVLVNAIVFKGLWEKAFKDEDTQAMPFRVTEQESKPVQMMYQIGLFRVASMASEKMKILELPFASGTMSMLVLLPDEVSGLEQLESIINFEKLTEWTSSNVMEERKIKVYLPRMKMEEKYNLTSVLMAMGITDVFSSSANLSGISSAESLKISQAVHAAHAEINEAGREVVGSAEAGVDAASVSEEFRADHPFLFCIKHIATNAVLFFGRCVSP
modifications: DyLight680 label
organ distribution of labeled OVA (IVIS) (mice): kidney
